According to US8906844B2 (SYNTONIX PHARMACEUTICALS, dated 2014):
Starred links: 1 amine or outer side, 2 acyl side, 3 side chain; linkers in the order of their positions; H or OH if unused. Positions of bridges follow the written chain, without caps; N, C: chain ends. Non-standard residues stand in square brackets, D forms with d. No end group written: not given here. X1 = 3(R)‑3‑amino‑2‑oxo‑1‑piperidine‑acetic acid, O=C1[C@H](N[*:1])CCCN1CC(=O)[*:2]; NMeL = CN[C@@H](CC(C)C)C(=O)O; Pen = CC(C)(S)[C@H](N)C(=O)O; NMeA = CN[C@@H](C)C(=O)O; Sar = CNCC(=O)O

B1: Peptide No. 147 (peptide)
peptide: RF[Pen]TGHFG[Sar]YPCNGP-NH2
modifications: disulfide 3-12; N-terminus assumed
SMILES: C[C@@H](O)[C@@H]1NC(=O)[C@@H](NC(=O)[C@H](Cc2ccccc2)NC(=O)[C@@H](N)CCCNC(=N)N)C(C)(C)SSC[C@@H](C(=O)N[C@@H](CC(N)=O)C(=O)NCC(=O)N2CCC[C@H]2C(N)=O)NC(=O)[C@@H]2CCCN2C(=O)[C@H](Cc2ccc(O)cc2)NC(=O)CN(C)C(=O)CNC(=O)[C@H](Cc2ccccc2)NC(=O)[C@H](Cc2c[nH]cn2)NC(=O)CNC1=O
notes: printed RF-Pen-TGHFG-Sar-YPCNGP (no Leu after Sar)
B2: Peptide No. 41 (peptide)
peptide: QRF[Pen]TGHFG[dR]LYPCNGP-NH2
modifications: disulfide 4-14; N-terminus assumed
SMILES: CC(C)C[C@@H]1NC(=O)[C@@H](CCCNC(=N)N)NC(=O)CNC(=O)[C@H](Cc2ccccc2)NC(=O)[C@H](Cc2c[nH]cn2)NC(=O)CNC(=O)[C@H]([C@@H](C)O)NC(=O)[C@@H](NC(=O)[C@H](Cc2ccccc2)NC(=O)[C@H](CCCNC(=N)N)NC(=O)[C@@H](N)CCC(N)=O)C(C)(C)SSC[C@@H](C(=O)N[C@@H](CC(N)=O)C(=O)NCC(=O)N2CCC[C@H]2C(N)=O)NC(=O)[C@@H]2CCCN2C(=O)[C@H](Cc2ccc(O)cc2)NC1=O

Molecular target: T1, soluble human FcRn (shFcRn) (human, UniProt P55899 24-297; P61769 21-119, biotinylated with Sulfo-NHS-LC-Biotin in the ELISA; amine-coupled to a CM5 chip in SPR)
T1 construct: also called biotinylated shFcRn
Assay: SPR, pH 6

T1 sequence (P55899 24-297 limits assumed, chain 1 of 2): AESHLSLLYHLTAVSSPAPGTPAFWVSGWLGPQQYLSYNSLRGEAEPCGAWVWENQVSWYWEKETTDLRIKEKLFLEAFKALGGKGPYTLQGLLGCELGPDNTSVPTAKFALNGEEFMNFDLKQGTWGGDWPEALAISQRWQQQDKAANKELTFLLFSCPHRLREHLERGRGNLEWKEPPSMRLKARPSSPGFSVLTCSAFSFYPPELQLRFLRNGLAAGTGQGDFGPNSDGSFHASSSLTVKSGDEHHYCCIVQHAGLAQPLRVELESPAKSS
T1 sequence (P61769 21-119 limits assumed, chain 2 of 2): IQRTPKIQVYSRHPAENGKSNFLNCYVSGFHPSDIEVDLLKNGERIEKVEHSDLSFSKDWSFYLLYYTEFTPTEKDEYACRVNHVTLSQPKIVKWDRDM

Binder | Kd
RF[Pen][NMeA]GHF[X1][NMeL]YPC-NH2 (disulfide 3-12 (inferred)) [Peptide No. 228] | 145 nM

Molecular target: T1, soluble human FcRn (shFcRn)
Assay: SPR, pH 6
Remark: another data set of the same source
Description: (§1) The following steps were performed to cross-link soluble human or cynomolgus FcRn to the dextran surface of a CM5 sensor chip (Biacore AB, Uppsala, Sweden) by an amine coupling reaction involving 1-ethyl-(3-dimethylaminopropyl)-carbodiimide hydrochloride (EDC) (Biacore AB, Uppsala, Sweden) and N-hydroxysuccinimide (NHS) (Biacore AB, Uppsala, Sweden) as recommended by Biacore (BIAapplications Handbook, version AB, section 4.2, Biacore AB, Uppsala, Sweden). The FcRn protein was diluted in 50 mM sodium acetate, pH 4.5 (Biacore AB, Uppsala, Sweden) to a concentration of 10 to 30 µg/ml and used to coat one flow cell on the sensor chip. Residual sites on the FcRn flow cell were blocked with 1 M ethanolamine hydrochloride pH 8.5 (Biacore AB, Uppsala, Sweden). A control flow cell was blocked with ethanolamine for reference subtraction. For analysis of the monomeric peptides, FcRn was coated to a final density of 4000-5000 response units (RU). For analysis of the peptide dimers, FcRn was coated to a density of 2000-2500 RU. All SPR measurements were performed using a BIACORE 3000 Instrument (Biacore AB Uppsala, Sweden). For measurements done at either pH 6 or pH 7.4, experiments were performed in 50 mM phosphate, 100 mM sodium chloride, 0.01% surfactant P20 (Biacore AB, Uppsala, Sweden).
(§2) A. Representative Procedure for the Determination of Binding Constant of Monomeric Peptides Ten 2-fold dilutions of the peptide were injected over the FcRn-CM5 chip at a rate of 20 µl/min for 2 min. The peptide was dissociated from the chip for 2.5 minutes with buffer. Any remaining peptide was removed from the chip with a 30 second injection of HBS-P buffer (Biacore AB, Uppsala, Sweden) at a rate of 30 µl/min. Sensorgrams were generated and analyzed using BiaEval software version 3.1 (Biacore AB, Uppsala, Sweden). The equilibrium RU observed for each injection was plotted against concentration. The equilibrium K_D values were derived by analysis of the plots using the steady state affinity model included in the BiaEval software.

Binder | Kd
B1 | 58 nM
QRFXTGHFGXXYPCNGP (Pen4; Sar10; NMeLeu11; disulfide; C-terminal amide) [Peptide No. 187] | 46 nM
RFXTGHFGXXYPC (Pen3; Sar9; NMeLeu10; disulfide; C-terminal amide) [Peptide No. 235] | 31 nM
RFXTGKFGXXYPC (Pen3; Sar9; NMeLeu10; disulfide; C-terminal amide) [Peptide No. 255] | 1300 nM
RFXTGRFGXXYPC (Pen3; Sar9; NMeLeu10; disulfide; C-terminal amide) [Peptide No. 256] | 500 nM
RFXTGFFGXXYPC (Pen3; Sar9; NMeLeu10; disulfide; C-terminal amide) [Peptide No. 265] | 3300 nM
B2 | 830 nM

Molecular target: T1, soluble human FcRn (shFcRn)
Assay: SPR, pH 6
Remark: another data set of the same source
Description: as §1, §2

Binder | Kd
QRFXTGHFGXXYPCNGP (Pen4; Sar10; NMeLeu11; disulfide; C-terminal amide) [Peptide No. 187] | 46 nM
RFXTGHFGXXYPC (Pen3; Sar9; NMeLeu10; disulfide; C-terminal amide) [Peptide No. 235] | 31 nM

Molecular target: T1, soluble human FcRn (shFcRn)
Assay: SPR, pH 7.4
Description: as §1, §2

Binder | Kd
B1 | 350 nM
QRFXTGHFGXXYPCNGP (Pen4; Sar10; NMeLeu11; disulfide; C-terminal amide) [Peptide No. 187] | 230 nM
RFXTGHFGXXYPC (Pen3; Sar9; NMeLeu10; disulfide; C-terminal amide) [Peptide No. 235] | 170 nM
B2 | 8800 nM

Molecular target: T1, soluble human FcRn (shFcRn)
Assay: SPR, pH 7.4
Remark: another data set of the same source
Description: as §1, with “All SPR measurements were performed using a BIACORE 3000 Instrument (Biacore AB Uppsala, Sweden). For measurements done at either pH 6 or pH 7.4, experiments were performed in 50 mM phosphate, 100 mM sodium chloride, 0.01% surfactant P20 (Biacore AB, Uppsala, Sweden).” left out
A. Representative Procedure for the Determination of Binding Constant of Monomeric Peptides Ten 2-fold dilutions of the peptide were injected over the FcRn-CM5 chip at a rate of 20 µl/min for 2 min. […] Sensorgrams were generated and analyzed using BiaEval software version 3.1 (Biacore AB, Uppsala, Sweden). […]

Binder | Kd
QRFXTGHFGXXYPCNGP (Pen4; Sar10; NMeLeu11; disulfide; C-terminal amide) [Peptide No. 187] | 230 nM
RFXTGHFGXXYPC (Pen3; Sar9; NMeLeu10; disulfide; C-terminal amide) [Peptide No. 235] | 170 nM

Molecular target: T1, soluble human FcRn (shFcRn)
Assay: SPR, pH 7.4
Remark: another data set of the same source

Binder | Kd
RFXTGKFGXXYPC (Pen3; Sar9; NMeLeu10; disulfide; C-terminal amide) [Peptide No. 255] | 1100 nM
RFXTGRFGXXYPC (Pen3; Sar9; NMeLeu10; disulfide; C-terminal amide) [Peptide No. 256] | 500 nM
RFXTGFFGXXYPC (Pen3; Sar9; NMeLeu10; disulfide; C-terminal amide) [Peptide No. 265] | 4200 nM

Molecular target: T1, soluble human FcRn (shFcRn)
Assay: competition ELISA vs human IgG

Binder | IC50
RF[Pen][NMeA]GHF[X1][NMeL]YPC-NH2 (disulfide 3-12 (inferred)) [Peptide No. 228] | 1100 nM

Molecular target: T1, soluble human FcRn (shFcRn)
Assay: competition ELISA vs human IgG
Remark: another data set of the same source
Description: (§3) The wells were coated with 100 μl/well of 1 μg/ml biotinylated-shFcRn in Buffer A. The plate was sealed and incubated at 37° C. for 2 hours. Afterwards, the plate was washed with 200 μl/well of Buffer B (Buffer B: 100 mM MES pH 6, 150 mM NaCl, 0.5% BSA IgG-free (Jackson ImmunoResearch, West Grove, Pa.), 0.05% Tween-20). […] To allow for mixing, the plate was rocked for 2 minutes, sealed and incubated at 37° C. for 2 hours. […] The plate was covered, incubated for 30 minutes at room temperature and washed 4 times with 200 μl/well of ice-cold buffer B. SureBlue TMB substrate solution (100 μl/well, KPL, Gaithersburg, Md.) was added and the plate was allowed to incubate at room temperature until color developed, which took 5 to 10 minutes. Once color developed, 100 μl/well of TMB stop solution (KPL, Gaithersburg, Md.) was added and the absorbance was measured at 450 nm.

Binder | IC50
B1 | 1000 nM
QRFXTGHFGXXYPCNGP (Pen4; Sar10; NMeLeu11; disulfide; C-terminal amide) [Peptide No. 187] | 420 nM
RFXTGHFGXXYPC (Pen3; Sar9; NMeLeu10; disulfide; C-terminal amide) [Peptide No. 235] | 490 nM
RFXTGKFGXXYPC (Pen3; Sar9; NMeLeu10; disulfide; C-terminal amide) [Peptide No. 255] | 40000 nM
RFXTGRFGXXYPC (Pen3; Sar9; NMeLeu10; disulfide; C-terminal amide) [Peptide No. 256] | 5500 nM
B2 | 8100 nM

Molecular target: T1, soluble human FcRn (shFcRn)
Assay: competition ELISA vs human IgG
Remark: another data set of the same source
Description: as §3

Binder | IC50
QRFXTGHFGXXYPCNGP (Pen4; Sar10; NMeLeu11; disulfide; C-terminal amide) [Peptide No. 187] | 420 nM
RFXTGHFGXXYPC (Pen3; Sar9; NMeLeu10; disulfide; C-terminal amide) [Peptide No. 235] | 490 nM
